Assay results reported in patent US20170355757A1 (Regeneron, published 2017).

T1: monkey C5-mmh (monkey, UniProt P01031 19-1676 (human entry), limits assumed)
T1 construct: recombinant, with C-terminal myc-myc-hexahistidine tag
T1 chain: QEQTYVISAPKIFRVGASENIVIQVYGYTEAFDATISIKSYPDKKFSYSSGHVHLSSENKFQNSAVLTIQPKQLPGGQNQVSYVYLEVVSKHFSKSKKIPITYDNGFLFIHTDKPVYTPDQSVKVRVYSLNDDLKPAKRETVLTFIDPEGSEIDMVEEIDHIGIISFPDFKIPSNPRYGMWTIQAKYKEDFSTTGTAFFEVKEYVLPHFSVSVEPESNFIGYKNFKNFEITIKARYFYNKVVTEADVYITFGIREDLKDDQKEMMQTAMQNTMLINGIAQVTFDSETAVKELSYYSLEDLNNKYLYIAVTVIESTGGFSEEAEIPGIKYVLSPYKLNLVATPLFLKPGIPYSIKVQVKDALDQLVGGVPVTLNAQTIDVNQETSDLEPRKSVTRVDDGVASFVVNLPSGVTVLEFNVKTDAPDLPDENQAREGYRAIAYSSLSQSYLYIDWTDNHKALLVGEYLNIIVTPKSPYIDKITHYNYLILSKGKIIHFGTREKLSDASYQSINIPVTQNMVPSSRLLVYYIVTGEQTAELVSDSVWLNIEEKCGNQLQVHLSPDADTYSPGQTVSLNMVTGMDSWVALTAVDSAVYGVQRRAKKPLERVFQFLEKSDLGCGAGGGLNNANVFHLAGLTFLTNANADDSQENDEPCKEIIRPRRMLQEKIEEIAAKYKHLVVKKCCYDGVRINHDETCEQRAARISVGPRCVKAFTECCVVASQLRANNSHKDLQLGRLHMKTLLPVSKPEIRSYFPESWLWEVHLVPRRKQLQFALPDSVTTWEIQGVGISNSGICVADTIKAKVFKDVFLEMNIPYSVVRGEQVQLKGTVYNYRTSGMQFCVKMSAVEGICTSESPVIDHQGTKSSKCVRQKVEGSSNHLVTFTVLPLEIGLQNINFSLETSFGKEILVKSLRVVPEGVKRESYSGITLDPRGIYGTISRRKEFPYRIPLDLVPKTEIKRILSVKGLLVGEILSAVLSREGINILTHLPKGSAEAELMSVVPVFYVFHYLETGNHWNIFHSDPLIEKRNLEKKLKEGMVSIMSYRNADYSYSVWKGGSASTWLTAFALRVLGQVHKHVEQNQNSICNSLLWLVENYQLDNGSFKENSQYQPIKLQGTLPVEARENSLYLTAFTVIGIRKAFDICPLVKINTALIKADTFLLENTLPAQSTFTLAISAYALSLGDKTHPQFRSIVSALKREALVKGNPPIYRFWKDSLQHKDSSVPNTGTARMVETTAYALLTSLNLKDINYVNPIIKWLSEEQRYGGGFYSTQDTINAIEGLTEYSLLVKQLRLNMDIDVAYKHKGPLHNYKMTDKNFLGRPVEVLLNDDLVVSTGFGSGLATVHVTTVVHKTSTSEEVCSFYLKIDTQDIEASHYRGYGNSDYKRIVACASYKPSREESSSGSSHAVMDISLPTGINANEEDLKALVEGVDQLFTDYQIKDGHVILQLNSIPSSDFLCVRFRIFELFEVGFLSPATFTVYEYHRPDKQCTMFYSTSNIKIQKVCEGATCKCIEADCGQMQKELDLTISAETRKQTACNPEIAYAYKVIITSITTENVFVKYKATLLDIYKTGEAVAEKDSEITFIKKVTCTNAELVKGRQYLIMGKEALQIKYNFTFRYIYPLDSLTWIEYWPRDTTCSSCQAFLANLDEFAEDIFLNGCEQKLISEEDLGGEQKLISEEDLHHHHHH

B1: H4H12161P (antibody, human IgG4, V domains shown)
VH: EVQLVESGGDLVQPGGSLRLSCAASGFTFSDHYMDWVRQAPGKGLDWIGRIRNKANAYNTEYAASVRGRFTISRDDSQNLLYLQMNSLKTDDTAVYYCVRVWNYAYFAMDVWGQGTTVTVSS
VL: DIQMTQSPSSLSASVGDRVTITCRSSQNIGIFLNWYQQKPGEAPNLLISAASSLHSGVPSRFSGSGSGTDFTLTIGSLQPEDFATYYCQQTYNTIFTFGPGTKVDIK
notes: H4H: human IgG4 Fc with S108P hinge mutation
B2: H4H12183P2 (antibody, human IgG4, V domains shown)
VH: QVQLQESGPALVKPSQTLSLTCTVSGGSIIRGSTYWSWVRQFPGKGLEWIGYSYYSGTAYYNPSLESRATISVDTSKNQFSLNLKSVTAADTAVYYCTREIGVAGLFDIWGQGTLVTVSS
VL: not shown
notes: as for B1

Assays:
human C5 [1] = molecular target: T2, human C5 (human, UniProt P01031 19-1676); experiment: cell-based or functional assay
African green monkey C5 [2] = molecular target: T3, African green monkey C5 (African green monkey); experiment: cell-based or functional assay
human C5 R885H-mmh = human C5 R885H-mmh (human, UniProt P01031 19-1676); experiment: cell-based or functional assay
human C5 R885C-mmh = human C5 R885C-mmh (human, UniProt P01031 19-1676); experiment: cell-based or functional assay
human C5 [3] = molecular target: T2, human C5; experiment: cell-based or functional assay; remark: listed apart in the source
African green monkey C5 [4] = molecular target: T3, African green monkey C5; experiment: cell-based or functional assay; remark: listed apart in the source
Cynomolgus monkey C5 = Cynomolgus monkey C5 (cynomolgus monkey, UniProt A0A2K5U1T1 19-1676); experiment: cell-based or functional assay
human C5 [5] = molecular target: T2, human C5; experiment: SPR (Biacore), mAb captured, dissociation of human C5 at pH7.4 vs pH6.0, 37°C
Experimental: Effect of pH on the rate of dissociation of recombinant human C5 bound to purified anti-C5 monoclonal antibodies was determined using a real-time surface plasmon resonance biosensor using a Biacore T200 instrument. The Biacore sensor surface was first derivatized by amine coupling with a monoclonal mouse anti-human Fc antibody (GE, # BR-1008-39) to capture anti-C5 monoclonal antibodies expressed with human IgG4 Fc. All Biacore binding studies were performed using two running buffers PBS-T, pH7.4 (0.01M Na₂HPO₄/NaH₂PO₄, 0.15M NaCl, 0.05% v/v Tween-20, adjusted to pH7.4) and PBS-T, pH6.0 (0.01M Na₂HPO₄/NaH₂PO₄, 0.15M NaCl, 0.05% v/v Tween-20, adjusted to pH6.0). […] Binding dissociative half-lives (t %) were calculated from kd as: […]

monkey C5-mmh [6] = molecular target: T1, monkey C5-mmh; experiment: SPR (Biacore), mAb captured, dissociation of monkey C5 at pH7.4 vs pH6.0, 37°C
monkey C5-mmh [7] = molecular target: T1, monkey C5-mmh; experiment: SPR (Biacore), mAb captured, dissociation of monkey C5 at pH7.4 vs pH6.0, 25°C

Binder	IC50, inhibition of CDC of Daudi cells, 1.66% human serum (human C5 [1])	IC50, inhibition of CDC of Daudi cells, 1.66% African Green monkey serum (African green monkey C5 [2])	IC50, inhibition of CDC of Daudi cells, C5 depleted human serum and 6.6 nM C5 Variant R885H (human C5 R885H-mmh)	IC50, inhibition of CDC of Daudi cells, C5 depleted human serum and 6.6 nM C5 Variant R885C (human C5 R885C-mmh)	Human AP % Max Inhibition, hemolysis assay, NHS (human C5 [3])	Human AP IC50, hemolysis assay, NHS (human C5 [3])	Human CP % Max Inhibition, hemolysis assay, NHS (human C5 [3])	Human CP IC50, hemolysis assay, NHS (human C5 [3])	AGM AP % Max Inhibition, hemolysis assay, 5% serum (African green monkey C5 [4])	AGM CP % Max Inhibition, hemolysis assay, 5% serum (African green monkey C5 [4])	AGM Serum AP IC50, hemolysis assay, 5% serum (African green monkey C5 [4])	AGM Serum CP IC50, hemolysis assay, 5% serum (African green monkey C5 [4])	Cyno AP % Max Inhibition, hemolysis assay, 5% serum (Cynomolgus monkey C5)	Cyno CP % Max Inhibition, hemolysis assay, 5% serum (Cynomolgus monkey C5)	Cyno Serum AP IC50, hemolysis assay, 5% serum (Cynomolgus monkey C5)	Cyno Serum CP IC50, hemolysis assay, 5% serum (Cynomolgus monkey C5)	t½ Ratio pH7.4/pH6.0 (human C5 [5])	t½ Ratio pH7.4/pH6.0 (monkey C5-mmh [6])	t½ Ratio pH7.4/pH6.0 (monkey C5-mmh [7])
B1	2.4 nM	2.6 nM	1.8 nM	1 nM	56.1%	25.5 nM	93.7%	2.56 nM	35.7%	78.9%	47.5 nM	31.9 nM	98.4%	100%	7.8 nM	27.9 nM	≤ 0.7	10.7	–
B2	1.7 nM	14 nM	1.2 nM	0.45 nM	78.9%	160 nM	99.9%	5.88 nM	–	–	–	–	100%	64.6%	29.6 nM	142 nM	–	2.4	5.8
